{"source": "paper PMC3215731", "molecular_target": "TNC-scTNFR2 (trimerization domain of human tenascin C fused to the N-terminus of the TNFR2-selective single-chain TNF) (human) (UniProt P24821)", "test": "SEC; HPLC-SEC, BioSep-SEC-S2000 7.8x300 column, PBS, 0.5 ml/min, 50 µl sample at 0.1 to 0.5 mg/ml, against standard proteins; oligomerization state under native conditions", "data": [{"substance": "TNC-scTNFR2 (trimerization domain of human tenascin C fused to the N-terminus of the TNFR2-selective single-chain TNF) (from UniProt P24821 110-139) (ligand)", "values": [{"measurement": "stoichiometry N", "result": 3}]}]}
